Here are results for 4 molecules from patent publication US9428773B2, “Methods of producing acetoin and 2,3-butanediol using photosynthetic microorganisms” (The Regents of the University of California, priority 2012, dated 2016).

Assay [1] can be described thus: sADH (ADH) activity in crude cell lysate of E. coli production strains, oxidation of NAD(P)H with acetoin. Format: biochemical. The conditions noted are these: expressed in E. coli, excess substrate, NADPH. The protocol:
(§1) Alcohol dehydrogenase (ADH) activity was determined by measuring the oxidation of NAD(P)H. The reaction mixture contained 50 mM 3-(N-morpholino) propanesulfonic acid (MOPS) pH 7.0, 25 mM acetoin and 0.2 mM NAD(P)H. The consumption of NAD(P)H was monitored at 340 nm. One specific unit of ADH activity corresponds to the oxidation of 1 nmol of NAD(P)H per minute per mg of protein.
The resulting E. coli strains were cultured in modified M9 medium, containing 50 g/L glucose, at 30° C. for 40 h (FIG. 4B). […] The fourth strain, expressing adh (C. b.), maintained a relatively low acetoin concentration (less than 6% of total production) and produced 13.8 g/L total 23BD as a mixture of (R,R)-23BD and meso-23BD stereoisomers forming 74% and 21% of total production respectively (FIG. 4B). The strains expressing adh (T. b.) and adh (C. p.) produced 2.4 g/L and 14.2 g/L 23BD respectively with both isomers formed in roughly equal amounts in each. […] Enzyme activities measured from crude cell lysate isolated during production were high for both sADH (C. p.) and sADH (C. b.), at 265 and 440 nmol min^−1 mg^−1 respectively, when excess substrate was used (FIG. 4B). […] The major 23BD product of each of the adh expressing strains matched the stereochemistry predicted by previous characterization (41-43).

Assay [2] can be described thus: ADH activity in crude cell lysate of modified S. elongatus strains, oxidation of NAD(P)H with acetoin. The conditions noted are these: for ADH enzyme activity in crude cell lysate: expressed in S. elongatus, lysate isolated during production. Format: biochemical. The procedure:
Enzyme Assays. S. elongatus cells were collected 72 h after induction by centrifugation (4000 g, 5 min, washed in 50 mM potassium phosphate buffer (pH 7.5) and resuspended in the same buffer. Crude extract were prepared with 0.1-mm glass beads and a Mini bead beater (Mini Bead Beater 8 (BioSpec Products, Inc., Bartlesville, Okla.)). The total protein determination was performed by Advanced Protein Assay Reagent from Cytoskeleton, Inc. (Denver, Colo.).
as §1
23BD production was detected in three out of four S. elongatus strains (FIG. 4C). […] The strain expressing adh (T. b.) produced 301 mg/L (R,R)-23BD with trace amounts of meso-23BD but also allowed for accumulation of acetoin (FIG. 4C). The strain expressing adh (C. b.) produced 270 mg/L (R,R)-23BD (major) and undetectable levels of acetoin, indicating high flux through the intermediate. The strain expressing adh (C. p.) produced 65 mg L^−1 23BD, with meso-23BD as the primary product and accumulated toxic levels of acetoin. The remaining S-installing adh (L. p.) was not active in S. elongatus, resulting only in accumulation of acetoin. […] Activity for adh (C. p.) was roughly 5-fold higher again than adh (C. b.), however low production and acetoin accumulation was observed, similar to the result in E. coli. […] The two sADH with highest production and lowest acetoin accumulation were further tested with the stronger ALDC gene alsD (A. h.). Both strains increased production, yielding 568 mg L^−1 from adh (T. b.) and 952 mg L^−1 from adh (C. b.), the latter of which is 3 fold higher than production with alsD (E. a.) over 72 hours (FIG. 4C).

B1: sADH (T. b.): Thermoanaerobacter brockii HTD4 secondary alcohol dehydrogenase, NADPH, R-installing (SEQ ID NO: 23) (protein, listed as Thermoanaerobacter brockii)
chain: MKGFAMLSIGKVGWIEKEKPAPGPFDAIVRPLAVAPCTSDIHTVFEGAIGERHNMILGHEAVGEVVEVGSEVKDFKPGDRVVVPAITPDWRTSEVQRGYHQHSGGMLAGWKFSNVKDGVFGEFFHVNDADMNLAHLPKEIPLEAAVMIPDMMTTGFHGAELADIELGATVAVLGIGPVGLMAVAGAKLRGAGRIIAVGSRPVCVDAAKYYGATDIVNYKDGPIESQIMNLTEGKGVDAAIIAGGNADIMATAVKIVKPGGTIANVNYFGEGEVLPVPRLEWGCGMAHKTIKGGLCPGGRLRMERLIDLVFYKRVDPSKLVTHVFRGFDNIEKAFMLMKDKPKDLIKPVVILA
Turning to B1, in assay [1], the “sADH enzyme activity in crude cell lysate” value (“sADH enzyme activity” below) is “Relatively low activity”. The “ADH enzyme activity in crude cell lysate” value in assay [2] worked out at 6.3 nmol min^−1 mg ^−1.

B2: sADH (C. b.): Clostridium beijerinckii NRRL B593 secondary alcohol dehydrogenase, NADPH, R-installing (SEQ ID NO: 21) (protein, listed as Clostridium beijerinckii)
chain: MKGFAMLGINKLGWIEKERPVAGSYDAIVRPLAVSPCTSDIHTVFEGALGDRKNMILGHEAVGEVVEVGSEVKDFKPGDRVIVPCTTPDWRSLEVQAGFQQHSNGMLAGWKFSNFKDGVFGEYFHVNDADMNLAILPKDMPLENAVMITDMMTTGFHGAELADIQMGSSVVVIGIGAVGLMGIAGAKLRGAGRIIGVGSRPICVEAAKFYGATDILNYKNGHIVDQVMKLTNGKGVDRVIMAGGGSETLSQAVSMVKPGGIISNINYHGSGDALLIPRVEWGCGMAHKTIKGGLCPGGRLRAEMLRDMVVYNRVDLSKLVTHVYHGFDHIEEALLLMKDKPKDLIKAVVIL
Regarding B2, the “sADH enzyme activity” value in assay [1] came to 440 nmol/min/mg. In addition, in assay [2] (S. elongatus crude cell lysate), the “fold higher activity than adh (T. b.)” value is “roughly 10 fold”. The “ADH enzyme activity in crude cell lysate” value in assay [2] is on record as 56.3 nmol min^−1 mg ^−1.

B3: adh (L. p.): Leuconostoc pseudomesenteroides CHCC 2114 secondary alcohol dehydrogenase, NADPH, S-installing (SEQ ID NO: 19) (protein)
chain: MTKKVAMVTGGAQGIGEAIVRRLSADGFAVAVADLNEAKSKEVATDIEKNGGTAIAVKLDVSDREGFFAAVKEVAEKLGGFDVLVNNAGLGPTTPIDTITPELFDKVYHINVAGDIWGIQAAVEQFKKNGNGGKIINATSQAGVVGNPNLSLYSSTKFAVRGLTQVAARDLAEQNITVNAYAPGIVKTPMMFDIAHEVGKNAGKDDEWGMQTFAKDIALKRLSEPEDVAAAVAFLAGPDSNYITGQTIEVDGGMQFH
modifications: Leuconostoc pseudomesenteroides
As for B3, the “ADH enzyme activity in crude cell lysate” value in assay [2] is recorded as “could not be detected”.

B4: sADH (C. p.): Candida parapsilosis M203011 secondary alcohol dehydrogenase, NADPH, S-installing (SEQ ID NO: 17) (protein, listed as Candida parapsilosis)
chain: MGEIESYCNKELGPLPTKAPTLSKNVLDLFSLKGKVASVTGSSGGIGWAVAEAYAQAGADVAIWYNSHPADEKAEHLQKTYGVHSKAYKCNISDPKSVEETISQQEKDFGTIDVFVANAGVTWTQGPEIDVDNYDSWNKIISVDLNGVYYCSHNIGKIFKKNGKGSLIITSSISGKIVNIPQLQAPYNTAKAACTHLAKSLAIEWAPFARVNTISPGYIDTDITDFASKDMKAKWWQLTPLGREGLTQELVGGYLYLASNASTFTTGSDVVIDGGYTCP
On to B4, for which the “sADH enzyme activity” value in assay [1] is 265 nmol/min/mg. Further, the “fold higher activity than adh (C. b.)” value in assay [2] (S. elongatus crude cell lysate) is listed as “roughly 5 fold”.
